Consider 2 molecules from paper PMC3799448 (Nucleic Acids Research, 2013).

The target of series [1] is T1, RAD51 (wild-type human RAD51 DNA strand exchange protein) (human, UniProt Q06609 1-339).
T1 sequence: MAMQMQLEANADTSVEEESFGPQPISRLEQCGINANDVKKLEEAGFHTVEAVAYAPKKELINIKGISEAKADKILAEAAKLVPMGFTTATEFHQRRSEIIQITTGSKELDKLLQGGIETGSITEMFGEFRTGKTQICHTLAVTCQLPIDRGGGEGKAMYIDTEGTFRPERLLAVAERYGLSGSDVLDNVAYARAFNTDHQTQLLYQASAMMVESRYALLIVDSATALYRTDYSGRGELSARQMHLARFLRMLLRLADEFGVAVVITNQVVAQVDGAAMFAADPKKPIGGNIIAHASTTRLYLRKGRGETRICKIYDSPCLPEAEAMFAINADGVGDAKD
As to the kind of experiment: fluorescence polarisation. A general note: Polarisation of emitted light reports the rotation of a fluorescent probe.

Another series has as its target RAD51 E59A (human, UniProt Q06609 1-339, E59A). In words: FRET.
The next series concerns the target RAD51 E42A (human, UniProt Q06609 1-339, E42A). As to the kind of experiment: FRET.
For the next series, the target named is RAD51 E237A (human, UniProt Q06609 1-339, E237A). In words: FRET.
Another series deals with RAD51 wild type (human, UniProt Q06609 1-339). In words: FRET.

B1: FITC-BRC4 peptide (BRC4 repeat of BRCA2) (peptide)
peptide: KEPTLLGFHTASGKKVKIAKESLDKVKNLFDEKEQ
modifications: FITC (fluorescein) on the N-terminus, as printed: FITC-KEPT...
By Kd is commonly meant the equilibrium constant for the complex coming apart. The low end stands for a tighter complex, the high end for a looser complex. B1 came in with a Kd in series [1] of 34 ± 5 nM.

B2: dT60 (poly(dT)-60) (ssDNA)
DNA: TTTTTTTTTTTTTTTTTTTTTTTTTTTTTTTTTTTTTTTTTTTTTTTTTTTTTTTTTTTT
B2: the binding result with RAD51 E59A, with RAD51 E42A, with RAD51 E237A and in the series with RAD51 wild type was “binds” in each case.
